# Patent US20240317851A1 (LANOVA MEDICINES, published 2024)
# Positions count from the first letter of the chain named.
# T1: human Claudin 9 (human, UniProt O95484 1-217)
# T1 construct: whole, on cells; also called CLDN9; CLND9
# T1 sequence (looked up): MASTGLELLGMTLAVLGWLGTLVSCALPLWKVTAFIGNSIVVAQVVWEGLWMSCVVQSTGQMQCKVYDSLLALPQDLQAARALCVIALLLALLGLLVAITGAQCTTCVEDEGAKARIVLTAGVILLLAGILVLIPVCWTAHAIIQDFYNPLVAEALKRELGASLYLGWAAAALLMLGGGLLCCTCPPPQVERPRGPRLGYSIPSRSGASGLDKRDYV
# T2: human Claudin 6 (human, UniProt P56747 1-220)
# T2 construct: whole, on cells; also called CLDN6
# T2 sequence (looked up): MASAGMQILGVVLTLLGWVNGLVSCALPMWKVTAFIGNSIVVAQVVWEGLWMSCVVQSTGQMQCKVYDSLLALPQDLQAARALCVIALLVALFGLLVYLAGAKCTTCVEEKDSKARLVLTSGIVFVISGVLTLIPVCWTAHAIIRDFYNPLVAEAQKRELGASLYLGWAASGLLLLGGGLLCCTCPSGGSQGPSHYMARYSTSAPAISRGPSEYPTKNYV
# T3: human Claudin 3 (human, UniProt O15551 1-220)
# T3 construct: whole, on cells; also called CLDN3
# T3 sequence (looked up): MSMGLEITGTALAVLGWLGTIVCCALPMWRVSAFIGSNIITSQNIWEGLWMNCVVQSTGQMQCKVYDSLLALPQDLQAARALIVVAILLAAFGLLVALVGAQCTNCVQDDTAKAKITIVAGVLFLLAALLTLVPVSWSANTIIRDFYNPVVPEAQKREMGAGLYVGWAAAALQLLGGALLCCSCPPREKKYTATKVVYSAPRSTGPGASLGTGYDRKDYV
# B1: 85-H10A5 (antibody, V domains shown)
# VH: EVQLQQSGPELVKPGASVKISCKTSGYTFTEYPMHWVKQSHEKSLEWIGGINPKNGDANSNQKFKGKATLTVDKSSSTAYMELRSLTSEDSAVYYCARGWLLLFDVWGAGTMVTVSS
# VL: DIQMTQSSSSFSVSLGDRVTISCKASEDIYNRLAWYQQKPGNAPRLLISGATSLETGIPSRFSGSGSGKDYTLSITTLQTEDVAAYYCQQYWSSPLTFGAGTKLELR
# notes: Tested as chimeric antibody
# B2: 23-B2F11 (antibody, V domains shown)
# VH: EVQLQQSGPELVKPGASVKISCKTSGYTFTEYTMHWVKQSHGRSLEWIGGINPNNGDTIYNQKFKGKATLTVDKSSSTAYMELRSLTSEDSAVYYCARRGGYGNFNFDYWGQGTTLTVSS
# VL: B1 VL with G16R, S22T, I58V, T77S, A85T, L96Y, A100G, L104V, L106I, R107K
# notes: Tested as chimeric antibody
# B3: 59-H12C5 (antibody, V domains shown)
# VH: EVQLVESGGGLVQPGGSLKLSCAASGFTFSSHGMSWVRQTADRGLELVASINSNGGRTYYPDSMKGRFTISRDNAKNTLYLQLSSLQPEDTALYYCACYYDNTYYAMDYWGQGTSLTVSS
# VL: QIVLTQSPAIMSASLGERVTMTCTASSSVSSSSLHWYQQKPGSSPKLWIYTTSTLASGVPARFSGSGSGTSYSLTISSMEAEDAATYYCHQYHRSPPTFGGGTKLEIK
# notes: Tested as chimeric antibody
# B4: 59-A2E6 (antibody, V domains shown)
# VH: EVQLQQSGPELVKPGASVKISCKTSGYTFTEYTMHWVKQSHGKSLEWIGGINPKNGGTSYNQKFKGKATLTVDKSSSTVYMEFRSLTTEDSAVYYCARGMLVAFYFDCWGQGTTLTVSS
# VL: DIQMTQSPASQSASLGESVTITCLASQTIGTWLAWYQQKPGKSPQLLIYAATSLADGVPSRFSGSGSGTKFSFKISSLQAEDFVSYYCQQLYSTPYTFGGGTKLEIK
# notes: Tested as chimeric antibody
# B5: 81-H10F8 (antibody, V domains shown)
# VH: B4 VH with K54N, S77R, V79A, F83L, T88S, L101V
# VL: B4 VL with S53G, S65G, A80V
# notes: Tested as chimeric antibody
# B6: 97-C10E1-2-P1.z14 (antibody, V domains shown)
# VH: QVQLQQSGAEVKKPGASMKISCKASGYAFTGYTMNWVRQAPGQNLEWIGLSNPYNAGTIYNQKFKGRATLTVDKSTSTAYMELLSLRSEDTAVYYCARNYYYGSSYAYYYAMDYWGQGTTVTVSS
# VL: DAQMTQSPSSLSASVGDRVTITCRSSTGAVTTSNYANWVQQKPGKAFKGLIGGTNNRAPGVPARFSGSLSGTDAALTISSLQPEDFATYFCALWYSNHWVFGGGTKVEIK
# B7: 97-C10E1-2-P1.z1 (antibody, V domains shown)
# VH: B6 VH with Q5V, M18V, I20V, N44G, A68V, L70M, A79V, L84S
# VL: EAVMTQSPATLSVSPGERATLSCRSSTGAVTTSNYANWVQQKPGQAPRLLIGGTNNRAPGIPARFSGSGSGDEATLTISSLQSEDFAVYFCALWYSNHWVFGGGTKVEIK
# B8: 97-C10E1-2-P1.z11 (antibody, V domains shown)
# VH: B6 VH
# VL: B7 VL
# B9: 97-C10E1-2-P1.z12 (antibody, V domains shown)
# VH: B6 VH
# VL: B7 VL with M4V, Q41E, P47F, L49G, G69L
# B10: 97-C10E1-2-P1.z9 (antibody, V domains shown)
# VH: B6 VH with M18V, I20V, A68V, A79V
# VL: B6 VL
# B11: 97-C10E1-2-P1.z7 (antibody, V domains shown)
# VH: B6 VH with M18V, I20V, A68V, A79V
# VL: B7 VL with M4V, Q41E, P47F, L49G, G69L
# B12: 97-C10E1-2-P1.z4 (antibody, V domains shown)
# VH: B6 VH with Q5V, M18V, I20V, N44G, A68V, L70M, A79V, L84S
# VL: B6 VL
# B13: 36-E6A6 (antibody, V domains shown)
# VH: QVQLQQSGGEVVRPGTSVKVSCKASGYAFTNNLIEWVKQRPGQGLEWIGVIHPGSGGSNYNEKFKNKATLTTDKSSSTAYIQLSSLTSDDSAVYFCARRGRDYAMDYWGQGTSVTVSS
# VL: EIVLTQSPAIMSASLGEKVTMSCRASSSVNSIYWYQQKSDASPKLWIYYTSNLAPGVPARFSGSGSGNSYSLTIRSMEGEDAATYYCQQFTSSPLTFGAGTKLELK
# notes: Tested as chimeric antibody
# Biological target: T1, human Claudin 9
# Test: flow cytometry, HEK293/H_CLDN9 cells, Ab titrated from 100 nM
# Description: (§1) In this example, cell based binding of chimeric Abs on human CLDN6 & CLND9 over-expressing cell line were assessed using flow cytometry.
# (§2) Briefly, the cells were incubated with chimeric Abs (from 100 nM, 6-fold dilution, 8 points) for 60 minutes at 4° C. Cells were pelleted and washed twice with 2% FBS/PBS buffer, and stained with fluorescent conjugated secondary antibody at 4° C. for 30 minutes. After that the cells were washed twice and resuspended in 80 μL of 2% FBS/PBS buffer. Fluorescent signal of binding was detected using Agilent. The EC50 was calculated using the GraphPad software (LaJolla, CA).
row,Top MFI,Binder
1,113000,B1
2,93300,B2
3,341000,B3
4,102000,B4
5,105000,B5

# Biological target: T1, human Claudin 9
# Test: as above
# Remark: another data set of the same source
# Description: In this example, cell-based binding of hu Abs on human CLDN9 expressing cells were assessed using flow cytometry.
# (§3) Briefly, the HEK293/H_CLDN9 cells were incubated with hu-Abs (from 100 nM, 6 folds dilution, 8 points). After incubation at 4° C. for 60 minutes. Cells were pelleted and washed twice with 2% FBS/PBS buffer, and stained with fluorescent conjugated secondary antibody at 4° C. for 30 minutes. After that the cells were washed twice and resuspended in 80 μL of 2% FBS/PBS buffer. Fluorescent signal of binding was detected using Agilent. The EC50 was calculated using the GraphPad software (LaJolla, CA).
row,Top MFI,Binder
1,661,B6
2,479,B7
3,287,B8
4,149,B9

# Biological target: T2, human Claudin 6
# Test: flow cytometry, HEK293/H_CLDN6 cells, Ab titrated from 100 nM
# Description: In this example, cell-based binding of humanized antibodies (hu Abs) on human CLDN6 expressing cells were assessed using flow cytometry.
# as §3, with “HEK293/H_CLDN6” for “HEK293/H_CLDN9”, “software.” for “software (LaJolla, CA).”
row,Top MFI,Binder
1,159000,B10
2,115000,B6
3,45100,B7
4,31000,B8
5,107000,B9
6,181000,B11
7,185000,B12

# Biological target: T3, human Claudin 3
# Test: flow cytometry, CHOK1/H_CLDN3 cells
# Description: (§4) In this example, cell-based binding of hu Abs on human CLDN3 expressing cells were assessed using flow cytometry.
# as §3, with “CHOK1/H_CLDN3” for “HEK293/H_CLDN9”, “software.” for “software (LaJolla, CA).”
row,Binder,binding result
1,B10,no binding (tested: 100 nM (highest concentration tested))
2,B6,no binding (tested: 100 nM (highest concentration tested))
3,B7,no binding (tested: 100 nM (highest concentration tested))
4,B8,no binding (tested: 100 nM (highest concentration tested))
5,B9,no binding (tested: 100 nM (highest concentration tested))
6,B11,no binding (tested: 100 nM (highest concentration tested))
7,B12,no binding (tested: 100 nM (highest concentration tested))

# Biological target: T1, human Claudin 9
# Test: flow cytometry, HEK293/H_CLDN9 cells
# Description: In this example, cell-based binding of z5 toward human CLDN9 engineering expressing cells were assessed using flow cytometry.
# as §3, with “2 cell lines” for “the HEK293/H_CLDN9 cells”, “antibodies” for “hu-Abs”, “points)” for “points). After incubation”, “software.” for “software (LaJolla, CA).”
row,Binder,binding result
1,B6,no binding (tested: 100 nM (highest concentration tested))
2,B7,no binding (tested: 100 nM (highest concentration tested))
3,B8,no binding (tested: 100 nM (highest concentration tested))
4,B9,no binding (tested: 100 nM (highest concentration tested))

# Biological target: T3, human Claudin 3
# Test: flow cytometry, CHOK1/H_CLDN3 cells, Ab titrated from 100 nM
# Description: as §4
# as §3, with “CHOK1/H_CLDN3” for “HEK293/H_CLDN9”, “software.” for “software (LaJolla, CA).”
row,Top MFI,Binder
1,297,B10
2,158,B6
3,136,B7
4,118,B8
5,130,B9
6,249,B11
7,263,B12

# Biological target: T1, human Claudin 9
# Test: flow cytometry, HEK293/H_CLDN9 cells, Ab titrated from 100 nM
# Remark: another data set of the same source
row,Top MFI,Binder
1,5810,B10
2,1660,B11
3,9160,B12

# Biological target: T2, human Claudin 6
# Test: flow cytometry, HEK293/H_CLDN6 cells, Ab titrated from 100 nM
# Remark: another data set of the same source
# Description: as §1, §2
row,Top MFI,Binder
1,285000,B1
2,117000,B2
3,379000,B3
4,264000,B4
5,257000,B5
6,62100,B13
